Like-named read-outs stand apart in the source and are kept apart here. One block for each molecule: values may come before it. Starred links: 1 amine or outer side, 2 acyl side, 3 side chain; linkers in the order of their positions; H or OH if unused. Positions of bridges follow the written chain, without caps; N, C: chain ends. Non-standard residues stand in square brackets, D forms with d. Residues, ends and D or L forms follow the SMILES beside them. Groups on a side chain read outwards from the residue. No end group written: not given here. *: point of attachment. Docosanoyl = CCCCCCCCCCCCCCCCCCCCCC(=O)*; Phe(4-NH2) = Nc1ccc(C[C@H](N)C(=O)O)cc1; Arachidoyl = CCCCCCCCCCCCCCCCCCCC(=O)*; d(εLys) = N[C@H](CCCCN[*:1])C(=O)[*:2]; PhLac = O=C(O)[C@@H](O)Cc1ccccc1; Aib = CC(C)(N)C(=O)O; C20 = C20 acyl group; Sar = CNCC(=O)O
Legend:
[1] = format: physicochemical; conditions: buffer
Description: Preliminary analyses were performed with these crude peptides for an approximation of their relative conversion rates in Phosphate Buffered Saline (PBS) buffer (pH, 7.2) using high performance liquid chromatography (HPLC) and MALDI analysis. The crude peptide samples were dissolved in the PBS buffer at a concentration of 1 mg/mL. […] Aliquots of 100 μL were drawn out at various time intervals, cooled to room temperature and analyzed by HPLC. […] The peptides described above were incubated in PBS buffer or serum at 37° C. for up to 8 days. Samples were collected at different time points for PBS and plasma and half-life was determined. […] The peptides described above were incubated in PBS buffer or serum at 37° C. for up to 8 days. Samples were collected at different time points for PBS and plasma and half-life was determined. […] The shorter half-life seen when the acylated dipeptide was linked to […] might be due to a conformational change that facilitates cleavage when bound to plasma or alternatively to reduced detection of the acylated form when bound to plasma.

[2] = format: in vitro ADME
Description: The peptides described above were incubated in PBS buffer or serum at 37° C. for up to 8 days. Samples were collected at different time points for PBS and plasma and half-life was determined. […] The peptides described above were incubated in PBS buffer or serum at 37° C. for up to 8 days. Samples were collected at different time points for PBS and plasma and half-life was determined. […] The shorter half-life seen when the acylated dipeptide was linked to […] might be due to a conformational change that facilitates cleavage when bound to plasma or alternatively to reduced detection of the acylated form when bound to plasma.

GLP-1 receptor [3] = target: GLP-1 receptor (Homo sapiens, UniProt P43220); test: GLP-receptor luciferase bioassay of samples incubated in 20% human plasma (restored activity); format: cell-based; conditions: 37° C.; for Change of activity over the time points in plasma: 0 to 5 d
Sequence of GLP-1 receptor (Homo sapiens, UniProt P43220) (P43220 24-463): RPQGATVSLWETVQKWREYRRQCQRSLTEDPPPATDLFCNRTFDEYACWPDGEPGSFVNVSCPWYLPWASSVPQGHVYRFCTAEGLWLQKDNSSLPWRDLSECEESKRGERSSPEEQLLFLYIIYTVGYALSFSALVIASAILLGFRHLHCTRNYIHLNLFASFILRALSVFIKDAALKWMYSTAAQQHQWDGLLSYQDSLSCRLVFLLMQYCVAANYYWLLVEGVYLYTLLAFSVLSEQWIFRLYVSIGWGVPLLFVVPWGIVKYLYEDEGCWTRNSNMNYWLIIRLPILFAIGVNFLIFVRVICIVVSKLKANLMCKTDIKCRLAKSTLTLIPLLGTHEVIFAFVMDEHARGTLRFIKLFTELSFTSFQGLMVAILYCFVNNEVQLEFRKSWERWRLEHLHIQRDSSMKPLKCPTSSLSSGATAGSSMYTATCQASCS
Description: To explore the possible formation of DKP and simultaneous regeneration of the parent drug, the above-mentioned peptides were incubated in 20% human plasma at 37° C. for approximately 5 days. Samples were collected at different time points (0, 1, 2, and 5 days).

glucagon receptor [4] = target: glucagon receptor (UniProt P47871); test: cell-based or functional assay
Sequence of glucagon receptor (UniProt P47871) (P47871 26-477 limits assumed): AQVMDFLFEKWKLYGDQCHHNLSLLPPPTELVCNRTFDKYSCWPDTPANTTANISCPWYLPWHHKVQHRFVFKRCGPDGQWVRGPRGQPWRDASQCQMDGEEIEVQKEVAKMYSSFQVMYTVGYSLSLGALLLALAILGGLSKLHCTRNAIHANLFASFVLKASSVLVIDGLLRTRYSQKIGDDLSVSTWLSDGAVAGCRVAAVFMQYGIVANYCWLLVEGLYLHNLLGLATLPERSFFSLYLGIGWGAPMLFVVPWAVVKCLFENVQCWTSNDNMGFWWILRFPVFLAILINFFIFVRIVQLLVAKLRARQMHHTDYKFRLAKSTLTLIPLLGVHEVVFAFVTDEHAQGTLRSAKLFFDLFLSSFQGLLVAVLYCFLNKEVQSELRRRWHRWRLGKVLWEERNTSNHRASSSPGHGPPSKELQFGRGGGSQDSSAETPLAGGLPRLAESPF

glucagon receptor [5] = target: glucagon receptor (UniProt P47871); test: cell-based or functional assay; remark: listed apart in the source
GLP-1 receptor [6] = target: GLP-1 receptor (UniProt P43220 24-463, limits assumed); test: cell-based or functional assay
glucagon receptor [7] = target: glucagon receptor (UniProt P47871 26-477, limits assumed); test: cell-based or functional assay
Sequence of glucagon receptor (UniProt P47871 26-477, limits assumed) (P47871 26-477 limits assumed): as above

Molecule: CCCCCCCCCCCCCCCCCC(=O)NCCCC[C@@H](N)C(=O)N(C)CC(=O)NCCCC[C@H](NC(=O)[C@H](CC(=O)O)NC(=O)[C@H](CO)NC(=O)[C@@H](NC(=O)[C@H](Cc1ccccc1)NC(=O)[C@@H](NC(=O)CNC(=O)[C@H](CCC(=O)O)NC(=O)C(C)(C)NC(=O)[C@@H](N)Cc1ccccc1)[C@@H](C)O)[C@@H](C)O)C(=O)N[C@@H](CO)C(=O)N[C@H](C(=O)N[C@@H](Cc1ccc(O)cc1)C(=O)N[C@@H](CC(C)C)C(=O)N[C@@H](CC(=O)O)C(=O)N[C@@H](CCCCN)C(=O)N[C@@H](CCC(N)=O)C(=O)N[C@@H](C)C(=O)N[C@@H](C)C(=O)NC(C)(C)C(=O)N[C@@H](CCC(=O)O)C(=O)N[C@@H](Cc1ccccc1)C(=O)N[C@H](C(=O)N[C@@H](CC(N)=O)C(=O)N[C@@H](Cc1c[nH]c2ccccc12)C(=O)N[C@@H](CC(C)C)C(=O)N[C@@H](CC(C)C)C(=O)N[C@@H](C)C(=O)NCC(=O)NCC(=O)N1CCC[C@H]1C(=O)N[C@@H](CO)C(=O)N[C@@H](CO)C(=O)NCC(=O)N[C@@H](C)C(=O)N1CCC[C@H]1C(=O)N1CCC[C@H]1C(=O)N1CCC[C@H]1C(=O)N[C@@H](CO)C(=O)O)C(C)C)[C@@H](C)CC [Peptide E]
half-life [1]: ~168 h
half-life [2]: ~168 h

Molecule: CCCCCCCCCCCCCCCCCCCC(=O)NCCCC[C@@H](N)C(=O)N(C)CC(=O)Nc1ccc(C[C@H](NC(=O)[C@H](CC(=O)O)NC(=O)[C@H](CO)NC(=O)[C@@H](NC(=O)[C@H](Cc2ccccc2)NC(=O)[C@@H](NC(=O)CNC(=O)[C@H](CCC(=O)O)NC(=O)C(C)(C)NC(=O)[C@@H](N)Cc2ccccc2)[C@@H](C)O)[C@@H](C)O)C(=O)N[C@@H](CO)C(=O)N[C@H](C(=O)N[C@@H](Cc2ccc(O)cc2)C(=O)N[C@@H](CC(C)C)C(=O)N[C@@H](CC(=O)O)C(=O)N[C@@H](CCCCN)C(=O)N[C@@H](CCC(N)=O)C(=O)N[C@@H](C)C(=O)N[C@@H](C)C(=O)NC(C)(C)C(=O)N[C@@H](CCC(=O)O)C(=O)N[C@@H](Cc2ccccc2)C(=O)N[C@H](C(=O)N[C@@H](CC(N)=O)C(=O)N[C@@H](Cc2c[nH]c3ccccc23)C(=O)N[C@@H](CC(C)C)C(=O)N[C@@H](CC(C)C)C(=O)N[C@@H](C)C(=O)NCC(=O)NCC(=O)N2CCC[C@H]2C(=O)N[C@@H](CO)C(=O)N[C@@H](CO)C(=O)NCC(=O)N[C@@H](C)C(=O)N2CCC[C@H]2C(=O)N2CCC[C@H]2C(=O)N2CCC[C@H]2C(=O)N[C@@H](CO)C(N)=O)C(C)C)[C@@H](C)CC)cc1 (H-F[Aib]EGTFTSD[Phe(4-NH2)]([Sar-d(εLys)-Arachidoyl])SIYLDKQAA[Aib]EFVNWLLAGGPSSGAPPPS-NH2; N-terminus and C-terminus assumed)
half-life [1]: ~24 h
Relative activity to GLP-1 standard (GLP-1 receptor [3]; 0 d): 30.9%
Restored (activity relative to parent peptide) (GLP-1 receptor [3]; 0 d): Restored 36%
Change of activity over the time points in plasma (GLP-1 receptor [3]): Activity Restored
Relative activity to GLP-1 standard (GLP-1 receptor [3]; 1 d): 37.8%
Restored (activity relative to parent peptide) (GLP-1 receptor [3]; 1 d): Restored 45%
Relative activity to GLP-1 standard (GLP-1 receptor [3]; 5 d): 96.9%
Restored (activity relative to parent peptide) (GLP-1 receptor [3]; 5 d): Restored 133%

Molecule: E9, K12, E16 glucagon(6-39) Cex peptide (Table 1 peptide 1)
Glu IC50 (glucagon receptor [4]): 762 nM
Glucagon IC50 (glucagon receptor [5]): 762 nM

Molecule: CCCCCCCCCCCCCCCCCCCCCC(=O)NCCCC[C@@H](N)C(=O)N(C)CC(=O)NCCCC[C@H](NC(=O)[C@H](CO)NC(=O)[C@H](Cc1ccc(O)cc1)NC(=O)[C@H](CC(=O)O)NC(=O)[C@H](CO)NC(=O)[C@@H](NC(=O)[C@H](Cc1ccccc1)NC(=O)[C@@H](NC(=O)CNC(=O)[C@H](CCC(=O)O)NC(=O)C(C)(C)NC(=O)[C@@H](N)Cc1ccc(O)cc1)[C@@H](C)O)[C@@H](C)O)C(=O)N[C@@H](Cc1ccc(O)cc1)C(=O)N[C@@H](CC(C)C)C(=O)N[C@@H](CC(=O)O)C(=O)N[C@@H](CCCCN)C(=O)N[C@@H](CCC(N)=O)C(=O)N[C@@H](C)C(=O)N[C@@H](C)C(=O)NC(C)(C)C(=O)N[C@@H](CCC(=O)O)C(=O)N[C@@H](Cc1ccccc1)C(=O)N[C@H](C(=O)N[C@@H](CC(N)=O)C(=O)N[C@@H](Cc1c[nH]c2ccccc12)C(=O)N[C@@H](CC(C)C)C(=O)N[C@@H](CC(C)C)C(=O)N[C@@H](C)C(=O)NCC(=O)NCC(=O)N1CCC[C@H]1C(=O)N[C@@H](CO)C(=O)N[C@@H](CO)C(=O)NCC(=O)N[C@@H](C)C(=O)N1CCC[C@H]1C(=O)N1CCC[C@H]1C(=O)N1CCC[C@H]1C(=O)N[C@@H](CO)C(=O)O)C(C)C [Peptide F]
half-life [2]: < 24 h

Molecule: C22 attached directly to position 10 (non-prodrug): non-prodrug: C22-acylated lysine attached directly to the 4-amino group of phenylalanine at position 10 of Peptide D (F[Aib]EGTFTSD[Phe(4-NH2)]([Lys-Docosanoyl])SIYLDKQAA[Aib]EFVNWLLAGGPSSGAPPPS; not fully specified (C-terminus))
Change of activity over the time points in plasma (GLP-1 receptor [3]): No change

Molecule: C20 attached directly to position 10 (non-prodrug): non-prodrug: C20-acylated lysine attached directly to the 4-amino group of phenylalanine at position 10 of Peptide D (F[Aib]EGTFTSD[Phe(4-NH2)]([Lys-C20])SIYLDKQAA[Aib]EFVNWLLAGGPSSGAPPPS; not fully specified (C-terminus))
Change of activity over the time points in plasma (GLP-1 receptor [3]): No change

B2: [A2E3, E16K20(Lactam), D28]G(1~29) (Table 2 peptide 8) (peptide)
peptide: HAEGTFTSEYSKYLDERRAKDFVQWLMDT-NH2
modifications: lactam 16-20; N-terminus assumed
SMILES: CSCC[C@H](NC(=O)[C@H](CC(C)C)NC(=O)[C@H](Cc1c[nH]c2ccccc12)NC(=O)[C@H](CCC(N)=O)NC(=O)[C@@H](NC(=O)[C@H](Cc1ccccc1)NC(=O)[C@H](CC(=O)O)NC(=O)[C@@H]1CCCCNC(=O)CC[C@H](NC(=O)[C@H](CC(=O)O)NC(=O)[C@H](CC(C)C)NC(=O)[C@H](Cc2ccc(O)cc2)NC(=O)[C@H](CCCCN)NC(=O)[C@H](CO)NC(=O)[C@H](Cc2ccc(O)cc2)NC(=O)[C@H](CCC(=O)O)NC(=O)[C@H](CO)NC(=O)[C@@H](NC(=O)[C@H](Cc2ccccc2)NC(=O)[C@@H](NC(=O)CNC(=O)[C@H](CCC(=O)O)NC(=O)[C@H](C)NC(=O)[C@@H](N)Cc2c[nH]cn2)[C@@H](C)O)[C@@H](C)O)C(=O)N[C@@H](CCCNC(=N)N)C(=O)N[C@@H](CCCNC(=N)N)C(=O)N[C@@H](C)C(=O)N1)C(C)C)C(=O)N[C@@H](CC(=O)O)C(=O)N[C@H](C(N)=O)[C@@H](C)O
GLP-1 EC50 (GLP-1 receptor [6]): 0.2 nM
Glucagon IC50 (nM); PA = partial antagonist (glucagon receptor [7]): 130 nM

Now from value to molecule:

GLP-1 EC50 (GLP-1 receptor [6]): 289 nM
Glucagon IC50 (glucagon receptor [7]): 22 nM
Molecule: [PhLac]TSDYSKYLDERRAQDFVEWLMKT (lactam 19-23) [[PLA6, D9, E16, E24K28(lactam)]G(6~29) (Table 2 peptide 4)]

GLP-1 EC50 (GLP-1 receptor [6]): 239 nM
Glucagon IC50 (glucagon receptor [7]): 74 nM
Molecule: [PhLac]TSDYSKYLDERRAKDFVEWLMDT (lactam 15-19) [[PLA6, D9, E16, K20E24(Lactam), D28]G(6-29) (Table 2 peptide 3)]

GLP-1 EC50 (GLP-1 receptor [6]): 151 nM
Glucagon IC50 (glucagon receptor [7]): 10 to 30 nM
B1: [E9, E16K20(lactam), D28]G(4~29) (Table 2 peptide 5) (peptide)
peptide: GTFTSEYSKYLDERRAKDFVQWLMDT-NH2
modifications: lactam 13-17; N-terminus assumed
SMILES: CSCC[C@H](NC(=O)[C@H](CC(C)C)NC(=O)[C@H](Cc1c[nH]c2ccccc12)NC(=O)[C@H](CCC(N)=O)NC(=O)[C@@H](NC(=O)[C@H](Cc1ccccc1)NC(=O)[C@H](CC(=O)O)NC(=O)[C@@H]1CCCCNC(=O)CC[C@H](NC(=O)[C@H](CC(=O)O)NC(=O)[C@H](CC(C)C)NC(=O)[C@H](Cc2ccc(O)cc2)NC(=O)[C@H](CCCCN)NC(=O)[C@H](CO)NC(=O)[C@H](Cc2ccc(O)cc2)NC(=O)[C@H](CCC(=O)O)NC(=O)[C@H](CO)NC(=O)[C@@H](NC(=O)[C@H](Cc2ccccc2)NC(=O)[C@@H](NC(=O)CN)[C@@H](C)O)[C@@H](C)O)C(=O)N[C@@H](CCCNC(=N)N)C(=O)N[C@@H](CCCNC(=N)N)C(=O)N[C@@H](C)C(=O)N1)C(C)C)C(=O)N[C@@H](CC(=O)O)C(=O)N[C@H](C(N)=O)[C@@H](C)O

GLP-1 EC50 (GLP-1 receptor [6]): 0.28 nM
Molecule: HSQGTFTSDYARYLDARRAREFIKWLVRGRG [ANK2 (Bayer peptide) (Table 2 peptide 9)]

Glucagon IC50 (glucagon receptor [7]): 63 nM
Molecule: AEGTFTSEYSKYLDERRAKDFVQWLMDT (lactam 15-19) [[A2E3, E16K20(Lactam),D28]G(2~29) (Table 2 peptide 7)]

Source: patent US20160058881A1, “PRODRUGS WITH PROLONGED ACTION” (INDIANA UNIVERSITY RESEARCH AND TECHNOLOGY CORPORATION, priority 2013, published 2016)
